Each block holds one molecule with its values, some of them ahead of it. Bridges are numbered along the chain shown (N, C = ends). Where no end group is shown, it is not given here. [ ]: non-standard residue; d: D form.
Experiments:
[1] = tested on: mammalian systemic blood pressure; test: mammalian vasodilatory-hypotensive activity; assay type: in vivo; conditions: result in words
[2] = target: CRF receptors on anterior pituitary cells in culture; test: cell-based or functional assay

Molecule: H-Asn-Pro-Ser-Leu-Ser-Ile-Asp-Leu-Thr-Phe-His-Leu-Leu-Arg-Thr-Leu-Leu-Glu-Leu-Ala-Arg-Thr-Gln-Ser-Gln-Arg-Glu-Arg-Ala-Glu-Gln-Asn-Arg-Ile-Ile-Phe-Asp-Ser-Val-NH2 (H-NPSLSIDLTFHLLRTLLELARTQSQRERAEQNRIIFDSV-NH2) [hUcn(2-40)]
vasodilatory-hypotensive activity, including lowering systemic blood pressure and stimulating the secretion of ACTH [1]: significant mammalian vasodilatory-hypotensive activity

Molecule: H-DNPSLSIDLT[dF]HLLRTLLELARTQSQRERAEQNRIIFDSV-NH2 [[D-Phe^11]-hUcn]
vasodilatory-hypotensive activity, including lowering systemic blood pressure and stimulating the secretion of ACTH [1]: significant mammalian vasodilatory-hypotensive activity

antagonism of ACTH secretion under a challenge dose of ovine CRF, potency relative to the Standard Antagonist (times Standard Antagonist) [2]: 10.3
B1: (cyclo 29-32)[D-Phe11, Glu29, Lys32]-Ucn(11-40) (peptide)
peptide: [dF]HLLRTLLELARTQSQREEAEKNRIIFDSV-NH2
modifications: lactam 19-22; N-terminus assumed
SMILES: CC[C@H](C)[C@H](NC(=O)[C@H](CCCNC(=N)N)NC(=O)[C@H](CC(N)=O)NC(=O)[C@@H]1CCCCNC(=O)CC[C@H](NC(=O)[C@H](CCC(=O)O)NC(=O)[C@H](CCCNC(=N)N)NC(=O)[C@H](CCC(N)=O)NC(=O)[C@H](CO)NC(=O)[C@H](CCC(N)=O)NC(=O)[C@@H](NC(=O)[C@H](CCCNC(=N)N)NC(=O)[C@H](C)NC(=O)[C@H](CC(C)C)NC(=O)[C@H](CCC(=O)O)NC(=O)[C@H](CC(C)C)NC(=O)[C@H](CC(C)C)NC(=O)[C@@H](NC(=O)[C@H](CCCNC(=N)N)NC(=O)[C@H](CC(C)C)NC(=O)[C@H](CC(C)C)NC(=O)[C@H](Cc2c[nH]cn2)NC(=O)[C@H](N)Cc2ccccc2)[C@@H](C)O)[C@@H](C)O)C(=O)N[C@@H](C)C(=O)N[C@@H](CCC(=O)O)C(=O)N1)C(=O)N[C@H](C(=O)N[C@@H](Cc1ccccc1)C(=O)N[C@@H](CC(=O)O)C(=O)N[C@@H](CO)C(=O)N[C@H](C(N)=O)C(C)C)[C@@H](C)CC

antagonism of ACTH secretion under a challenge dose of ovine CRF, potency relative to the Standard Antagonist (times Standard Antagonist) [2]: 4.72
B2: (cyclo 29-32) [D-Phe11, Glu29, D-Glu31, Lys32]-Ucn(11-40) (peptide)
peptide: [dF]HLLRTLLELARTQSQREEA[dE]KNRIIFDSV-NH2
modifications: lactam 19-22; N-terminus assumed
SMILES: CC[C@H](C)[C@H](NC(=O)[C@H](CCCNC(=N)N)NC(=O)[C@H](CC(N)=O)NC(=O)[C@@H]1CCCCNC(=O)CC[C@H](NC(=O)[C@H](CCC(=O)O)NC(=O)[C@H](CCCNC(=N)N)NC(=O)[C@H](CCC(N)=O)NC(=O)[C@H](CO)NC(=O)[C@H](CCC(N)=O)NC(=O)[C@@H](NC(=O)[C@H](CCCNC(=N)N)NC(=O)[C@H](C)NC(=O)[C@H](CC(C)C)NC(=O)[C@H](CCC(=O)O)NC(=O)[C@H](CC(C)C)NC(=O)[C@H](CC(C)C)NC(=O)[C@@H](NC(=O)[C@H](CCCNC(=N)N)NC(=O)[C@H](CC(C)C)NC(=O)[C@H](CC(C)C)NC(=O)[C@H](Cc2c[nH]cn2)NC(=O)[C@H](N)Cc2ccccc2)[C@@H](C)O)[C@@H](C)O)C(=O)N[C@@H](C)C(=O)N[C@H](CCC(=O)O)C(=O)N1)C(=O)N[C@H](C(=O)N[C@@H](Cc1ccccc1)C(=O)N[C@@H](CC(=O)O)C(=O)N[C@@H](CO)C(=O)N[C@H](C(N)=O)C(C)C)[C@@H](C)CC

antagonism of ACTH secretion under a challenge dose of ovine CRF, potency relative to the Standard Antagonist (times Standard Antagonist) [2]: 4.01
B3: (cyclo 29-32) [D-Tyr11, Glu29, Lys32]-Ucn(11-40) (peptide)
peptide: [dY]HLLRTLLELARTQSQREEAEKNRIIFDSV-NH2
modifications: lactam 19-22; N-terminus assumed
SMILES: CC[C@H](C)[C@H](NC(=O)[C@H](CCCNC(=N)N)NC(=O)[C@H](CC(N)=O)NC(=O)[C@@H]1CCCCNC(=O)CC[C@H](NC(=O)[C@H](CCC(=O)O)NC(=O)[C@H](CCCNC(=N)N)NC(=O)[C@H](CCC(N)=O)NC(=O)[C@H](CO)NC(=O)[C@H](CCC(N)=O)NC(=O)[C@@H](NC(=O)[C@H](CCCNC(=N)N)NC(=O)[C@H](C)NC(=O)[C@H](CC(C)C)NC(=O)[C@H](CCC(=O)O)NC(=O)[C@H](CC(C)C)NC(=O)[C@H](CC(C)C)NC(=O)[C@@H](NC(=O)[C@H](CCCNC(=N)N)NC(=O)[C@H](CC(C)C)NC(=O)[C@H](CC(C)C)NC(=O)[C@H](Cc2c[nH]cn2)NC(=O)[C@H](N)Cc2ccc(O)cc2)[C@@H](C)O)[C@@H](C)O)C(=O)N[C@@H](C)C(=O)N[C@@H](CCC(=O)O)C(=O)N1)C(=O)N[C@H](C(=O)N[C@@H](Cc1ccccc1)C(=O)N[C@@H](CC(=O)O)C(=O)N[C@@H](CO)C(=O)N[C@H](C(N)=O)C(C)C)[C@@H](C)CC

ACTH secretion, anterior pituitary cell cultures, potency relative to r/hCRF [2]: 9.9 times r/hCRF
B4: (cyclo 29-32) [Ac-Pro3,D-Pro4,D-Phe11, Glu29, Lys32]-hUcn(3-40) (peptide)
peptide: Ac-P[dP]LSIDLT[dF]HLLRTLLELARTQSQREEAEKNRIIFDSV-NH2
modifications: lactam 27-30
SMILES: CC[C@H](C)[C@H](NC(=O)[C@H](CO)NC(=O)[C@H](CC(C)C)NC(=O)[C@H]1CCCN1C(=O)[C@@H]1CCCN1C(C)=O)C(=O)N[C@@H](CC(=O)O)C(=O)N[C@@H](CC(C)C)C(=O)N[C@H](C(=O)N[C@H](Cc1ccccc1)C(=O)N[C@@H](Cc1c[nH]cn1)C(=O)N[C@@H](CC(C)C)C(=O)N[C@@H](CC(C)C)C(=O)N[C@@H](CCCNC(=N)N)C(=O)N[C@H](C(=O)N[C@@H](CC(C)C)C(=O)N[C@@H](CC(C)C)C(=O)N[C@@H](CCC(=O)O)C(=O)N[C@@H](CC(C)C)C(=O)N[C@@H](C)C(=O)N[C@@H](CCCNC(=N)N)C(=O)N[C@H](C(=O)N[C@@H](CCC(N)=O)C(=O)N[C@@H](CO)C(=O)N[C@@H](CCC(N)=O)C(=O)N[C@@H](CCCNC(=N)N)C(=O)N[C@@H](CCC(=O)O)C(=O)N[C@H]1CCC(=O)NCCCC[C@@H](C(=O)N[C@@H](CC(N)=O)C(=O)N[C@@H](CCCNC(=N)N)C(=O)N[C@H](C(=O)N[C@H](C(=O)N[C@@H](Cc2ccccc2)C(=O)N[C@@H](CC(=O)O)C(=O)N[C@@H](CO)C(=O)N[C@H](C(N)=O)C(C)C)[C@@H](C)CC)[C@@H](C)CC)NC(=O)[C@H](CCC(=O)O)NC(=O)[C@H](C)NC1=O)[C@@H](C)O)[C@@H](C)O)[C@@H](C)O

antagonism of ACTH secretion under a challenge dose of ovine CRF, potency relative to the Standard Antagonist (times Standard Antagonist) [2]: 2.74
B5: (cyclo 29-32) [Pro10,D-Phe11, Glu29,D-Glu31, Lys32]-Ucn(10-40) (peptide)
peptide: P[dF]HLLRTLLELARTQSQREEA[dE]KNRIIFDSV-NH2
modifications: lactam 20-23; N-terminus assumed
SMILES: CC[C@H](C)[C@H](NC(=O)[C@H](CCCNC(=N)N)NC(=O)[C@H](CC(N)=O)NC(=O)[C@@H]1CCCCNC(=O)CC[C@H](NC(=O)[C@H](CCC(=O)O)NC(=O)[C@H](CCCNC(=N)N)NC(=O)[C@H](CCC(N)=O)NC(=O)[C@H](CO)NC(=O)[C@H](CCC(N)=O)NC(=O)[C@@H](NC(=O)[C@H](CCCNC(=N)N)NC(=O)[C@H](C)NC(=O)[C@H](CC(C)C)NC(=O)[C@H](CCC(=O)O)NC(=O)[C@H](CC(C)C)NC(=O)[C@H](CC(C)C)NC(=O)[C@@H](NC(=O)[C@H](CCCNC(=N)N)NC(=O)[C@H](CC(C)C)NC(=O)[C@H](CC(C)C)NC(=O)[C@H](Cc2c[nH]cn2)NC(=O)[C@@H](Cc2ccccc2)NC(=O)[C@@H]2CCCN2)[C@@H](C)O)[C@@H](C)O)C(=O)N[C@@H](C)C(=O)N[C@H](CCC(=O)O)C(=O)N1)C(=O)N[C@H](C(=O)N[C@@H](Cc1ccccc1)C(=O)N[C@@H](CC(=O)O)C(=O)N[C@@H](CO)C(=O)N[C@H](C(N)=O)C(C)C)[C@@H](C)CC

antagonism of ACTH secretion under a challenge dose of ovine CRF, potency relative to the Standard Antagonist (times Standard Antagonist) [2]: 4.99
B6: (cyclo 29-32) [D-Pro10,D-Phe11, Glu29, D-Glu31, Lys32]-Ucn(10-40) (peptide)
peptide: [dP][dF]HLLRTLLELARTQSQREEA[dE]KNRIIFDSV-NH2
modifications: lactam 20-23; N-terminus assumed
SMILES: CC[C@H](C)[C@H](NC(=O)[C@H](CCCNC(=N)N)NC(=O)[C@H](CC(N)=O)NC(=O)[C@@H]1CCCCNC(=O)CC[C@H](NC(=O)[C@H](CCC(=O)O)NC(=O)[C@H](CCCNC(=N)N)NC(=O)[C@H](CCC(N)=O)NC(=O)[C@H](CO)NC(=O)[C@H](CCC(N)=O)NC(=O)[C@@H](NC(=O)[C@H](CCCNC(=N)N)NC(=O)[C@H](C)NC(=O)[C@H](CC(C)C)NC(=O)[C@H](CCC(=O)O)NC(=O)[C@H](CC(C)C)NC(=O)[C@H](CC(C)C)NC(=O)[C@@H](NC(=O)[C@H](CCCNC(=N)N)NC(=O)[C@H](CC(C)C)NC(=O)[C@H](CC(C)C)NC(=O)[C@H](Cc2c[nH]cn2)NC(=O)[C@@H](Cc2ccccc2)NC(=O)[C@H]2CCCN2)[C@@H](C)O)[C@@H](C)O)C(=O)N[C@@H](C)C(=O)N[C@H](CCC(=O)O)C(=O)N1)C(=O)N[C@H](C(=O)N[C@@H](Cc1ccccc1)C(=O)N[C@@H](CC(=O)O)C(=O)N[C@@H](CO)C(=O)N[C@H](C(N)=O)C(C)C)[C@@H](C)CC

ACTH secretion, anterior pituitary cell cultures, potency relative to r/hCRF [2]: 5.69 times r/hCRF
B7: (cyclo 29-32) [Ac-Pro3,D-Ser4,D-Phe11, Glu29, Lys32]-hUcn(3-40) (peptide)
peptide: Ac-P[dS]LSIDLT[dF]HLLRTLLELARTQSQREEAEKNRIIFDSV-NH2
modifications: lactam 27-30
SMILES: CC[C@H](C)[C@H](NC(=O)[C@H](CO)NC(=O)[C@H](CC(C)C)NC(=O)[C@@H](CO)NC(=O)[C@@H]1CCCN1C(C)=O)C(=O)N[C@@H](CC(=O)O)C(=O)N[C@@H](CC(C)C)C(=O)N[C@H](C(=O)N[C@H](Cc1ccccc1)C(=O)N[C@@H](Cc1c[nH]cn1)C(=O)N[C@@H](CC(C)C)C(=O)N[C@@H](CC(C)C)C(=O)N[C@@H](CCCNC(=N)N)C(=O)N[C@H](C(=O)N[C@@H](CC(C)C)C(=O)N[C@@H](CC(C)C)C(=O)N[C@@H](CCC(=O)O)C(=O)N[C@@H](CC(C)C)C(=O)N[C@@H](C)C(=O)N[C@@H](CCCNC(=N)N)C(=O)N[C@H](C(=O)N[C@@H](CCC(N)=O)C(=O)N[C@@H](CO)C(=O)N[C@@H](CCC(N)=O)C(=O)N[C@@H](CCCNC(=N)N)C(=O)N[C@@H](CCC(=O)O)C(=O)N[C@H]1CCC(=O)NCCCC[C@@H](C(=O)N[C@@H](CC(N)=O)C(=O)N[C@@H](CCCNC(=N)N)C(=O)N[C@H](C(=O)N[C@H](C(=O)N[C@@H](Cc2ccccc2)C(=O)N[C@@H](CC(=O)O)C(=O)N[C@@H](CO)C(=O)N[C@H](C(N)=O)C(C)C)[C@@H](C)CC)[C@@H](C)CC)NC(=O)[C@H](CCC(=O)O)NC(=O)[C@H](C)NC1=O)[C@@H](C)O)[C@@H](C)O)[C@@H](C)O

From US20030032587A1, “Urocortin peptides” (The Salk Institute for Biological Studies, priority 1995, published 2003)
